Assay [1] concerns the target T1, extracellular domain of activin receptor type IIB (ActRIIBecd), biotinylated (Homo sapiens (Human), UniProt Q13705 27-117, amino-biotinylated with amine-PEG3-Biotin).
T1 construct: immobilised on a streptavidin-coated sensor chip; also called biotinylated ActRIIBecd; extracellular domain of ActRIIB
T1 sequence: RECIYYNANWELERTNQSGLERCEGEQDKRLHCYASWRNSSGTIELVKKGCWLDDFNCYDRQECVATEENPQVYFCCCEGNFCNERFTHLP
Description: BIAcore SPR, biotinylated ActRIIBecd on chip; SD ±13.42 nM. The procedure:
(§1) Biosensor experiments. In one embodiment, experiments were performed on a BIAcore™ T100/T200 instrument (Pharmacia Biosensor AB) in the multichannel mode (serial flow path involving flow cells 1+2+3+4). Flow rate was 10 μl/min; temperature was 25° C.; and data were recorded at 2.5 points/s. All four segments of a sensor chip CMS were coated with streptavidin (Sigma) to a density of 2000 pg/mm² (2000 resonance units) by the aminocoupling procedure. ActRIIBecd (10 mg) and amine-PEG3-Biotin (10 mg, Pierce, Rockford, Ill.) were dissolved in 200 μl H₂O and 10 mg NaCNBH₃ was added to prepare biotinylated ActRIIBecd. The reaction mixture was heated at 70° C. for 24 h, after that a further 10 mg NaCNBH₃ was added and the reaction was heated at 70° C. for another 24 h. After cooling to room temperature, the mixture was desalted with the spin column (3,000 molecular weight cut off (MWCO)). […] Sensograms were recorded during flow of the analyte (the ActRIIBecd-associated polypeptides (i.e., domains) as previously described) first through flow cell 1 (control) then through flow cell 2 (biotinylated ActRIIBecd). […] The sensograms obtained at 1.11, 3.33, 10, 30, and 90 nM analyte were evaluated for equilibrium binding, association rate, and dissociation rate by using the programs supplied with the instrument (BIA evaluation 2.1; Software Handbook. 1995; Pharmacia Biosensor AB).
In general terms: SPR reads the build-up and loss of mass on a sensor chip optically.

The target of assay [2] is T1, extracellular domain of activin …. As to the kind of experiment: BIAcore SPR, biotinylated ActRIIBecd on chip; SD ±16.51 nM. The procedure:
as §1

Assay [3] has the same target. As to the kind of experiment: BIAcore SPR, biotinylated ActRIIBecd on chip; SD ±13.21 nM. The protocol:
as §1

The target is the same in assay [4]. As to the kind of experiment: BIAcore SPR, biotinylated ActRIIBecd on chip; SD ±15.71 nM. The protocol:
as §1

Assay [5] has the same target. As to the kind of experiment: BIAcore SPR, biotinylated ActRIIBecd on chip; SD ±19.51 nM. The protocol:
as §1

Assay [6] has the same target. As to the kind of experiment: BIAcore SPR, biotinylated ActRIIBecd on chip; SD ±12.74 nM. The procedure: as §1
Assay [7] shares this target. Description: BIAcore SPR, biotinylated ActRIIBecd on chip; SD ±13.64 nM. The protocol:
as §1

For assay [8] the target is unchanged. Description: BIAcore SPR, biotinylated ActRIIBecd on chip; SD ±12.47 nM. The procedure: as §1
For assay [9] the target is unchanged. As to the kind of experiment: BIAcore SPR, biotinylated ActRIIBecd on chip; SD ±13.71 nM. The protocol: as §1
Assay [10] has the same target. Description: BIAcore SPR, biotinylated ActRIIBecd on chip; SD ±12.78 nM. The procedure: as §1
Assay [11] shares this target. Description: BIAcore SPR, biotinylated ActRIIBecd on chip; SD ±12.07 nM. The procedure:
as §1

Assay [12] shares this target. Description: BIAcore SPR, biotinylated ActRIIBecd on chip; SD ±11.20 nM. The protocol:
as §1

Assay [13] has the same target. As to the kind of experiment: BIAcore SPR, biotinylated ActRIIBecd on chip; SD ±16.58 nM. The protocol: as §1
Assay [14] shares this target. As to the kind of experiment: BIAcore SPR, biotinylated ActRIIBecd on chip; SD ±13.03 nM. The protocol:
as §1

The target is the same in assay [15]. Description: BIAcore SPR, biotinylated ActRIIBecd on chip; SD ±12.76 nM. The procedure: as §1
For assay [16] the target is unchanged. As to the kind of experiment: BIAcore SPR, biotinylated ActRIIBecd on chip; SD ±12.89 nM. The protocol:
as §1

The target is the same in assay [17]. Description: BIAcore SPR, biotinylated ActRIIBecd on chip; SD ±18.14 nM. The protocol: as §1
The target is the same in assay [18]. Description: BIAcore SPR, biotinylated ActRIIBecd on chip; SD ±11.79 nM. The protocol: as §1

B1: Recombinant polypeptide of clones 8 + 19 (designed binder)
chain: GQAKRKGYKRLKSSCKRHPLYNSKDPKACCVPTELSAPSPLYLDENEKPVLKNYQDMVVHGCGCR
With B1, the affinity in assay [1], expressed as Kd, was 31.1 nM. This lies in the double-digit nanomolar range.

B2: Recombinant polypeptide of clones 14 + 8 (designed binder)
chain: VDFKDVGWNDHAVAPPGYHAFYCHGECPFPLADHLNSDNHAIVQTKVNSVGQAKRKGYKRLKSSCKRHPLY
Consider B2, for which, in assay [2], the Kd (in general, the concentration at which binding is half-saturated) turned out to be 33.8 nM.

B3: Recombinant polypeptide of clones 15 + 10 + 21 (designed binder)
chain: VDFSDVGWNDWIVAPPGYHAFYCHGECPFPLADHLNSTNHAIVQTLVNSVAQAKHKQRKRLKSSCKRHPLYNSKIPKACCVPTELSAISMLYLDENEKVVLKNYQDMVVEGCGCR
B3 came in with a Kd in assay [3] of 15.1 nM. This lies in the double-digit nanomolar range.

B4: Recombinant polypeptide of clones 19 + 8 (designed binder)
chain: NSKDPKACCVPTELSAPSPLYLDENEKPVLKNYQDMVVHGCGCRGQAKRKGYKRLKSSCKRHPLY
In turn, B4 displayed a Kd in [4] of 33.5 nM.

B5: Recombinant polypeptide of clones 12 + 16 (designed binder)
chain: AQAKHKQYKRLKSSCKRHPLYVDFSDVGWNDWAVAPPGYHAFYCHGECPFPLADHLNSDNHAIVQTLVNSV
Turning to B5, the Kd in [5] was 67.4 nM.

B6: Recombinant polypeptide of clones 10 + 15 (designed binder)
chain: AQAKHKQRKRLKSSCKRHPLYVDFSDVGWNDWIVAPPGYHAFYCHGECPFPLADHLNSTNHAIVQTLVNSV
On to B6, for which the Kd in [6] worked out at 31.3 nM.

B7: Recombinant polypeptide of clones 8 + 14 (designed binder)
chain: GQAKRKGYKRLKSSCKRHPLYVDFKDVGWNDHAVAPPGYHAFYCHGECPFPLADHLNSDNHAIVQTKVNSV
For B7, in [7], the Kd turned out to be 35.1 nM.

B8: Recombinant polypeptide of clones 12 + 30 (designed binder)
chain: AQAKHKQYKRLKSSCKRHPLYTALDGTRGAQGSGGGGGGGGGGGGGGGGGGGGAGRGHGRRGRSRCSRKSLHVDFKELG
In the case of B8, binding in assay [8] was put at a Kd of 59.1 nM.

B9: Recombinant polypeptide of clones 30 + 12 (designed binder)
chain: TALDGTRGAQGSGGGGGGGGGGGGGGGGGGGGAGRGHGRRGRSRCSRKSLHVDFKELGAQAKHKQYKRLKSSCKRHPLY
The molecule B9 registered a Kd in assay [9] of 61.1 nM.

B10: Recombinant polypeptide of clones 15 + 21 (designed binder)
chain: VDFSDVGWNDWIVAPPGYHAFYCHGECPFPLADHLNSTNHAIVQTLVNSVNSKIPKACCVPTELSAISMLYLDENEKVVLKNYQDMVVEGCGCR
Turning to B10, the Kd in assay [10] was determined as 32.6 nM.

B11: Recombinant polypeptide of clones 14 + 19 (designed binder)
chain: VDFKDVGWNDHAVAPPGYHAFYCHGECPFPLADHLNSDNHAIVQTKVNSVNSKDPKACCVPTELSAPSPLYLDENEKPVLKNYQDMVVHGCGCR
On to B11, for which binding in assay [11] was characterised by a dissociation constant (Kd) of 31 nM.

B12: Recombinant polypeptide of clones 10 + 15 + 21 (designed binder)
chain: AQAKHKQRKRLKSSCKRHPLYVDFSDVGWNDWIVAPPGYHAFYCHGECPFPLADHLNSTNHAIVQTLVNSVNSKIPKACCVPTELSAISMLYLDENEKVVLKNYQDMVVEGCGCR
Regarding B12, in assay [12], the Kd turned out to be 17.2 nM.

B13: Recombinant polypeptide of clones 21 + 15 (designed binder)
chain: NSKIPKACCVPTELSAISMLYLDENEKVVLKNYQDMVVEGCGCRVDFSDVGWNDWIVAPPGYHAFYCHGECPFPLADHLNSTNHAIVQTLVNSV
In assay [13], B13 showed a Kd of 31 nM.

B14: Recombinant polypeptide of clones 19 + 14 (designed binder)
chain: NSKDPKACCVPTELSAPSPLYLDENEKPVLKNYQDMVVHGCGCRVDFKDVGWNDHAVAPPGYHAFYCHGECPFPLADHLNSDNHAIVQTKVNSV
As to B14, binding in assay [14] was put at a Kd of 32.1 nM. This lies in the double-digit nanomolar range.

B15: Recombinant polypeptide of clones 21 + 10 (designed binder)
chain: NSKIPKACCVPTELSAISMLYLDENEKVVLKNYQDMVVEGCGCRAQAKHKQRKRLKSSCKRHPLY
Molecule B15 registered a Kd in [15] of 30.2 nM.

B16: Recombinant polypeptide of clones 29 + 16 (designed binder)
chain: EPLGGARWEAFDVTDAVQSHRRSQRASRKCCLVLRAVTASVDFSDVGWNDWAVAPPGYHAFYCHGECPFPLADHLNSDNHAIVQTLVNSV
For B16, in assay [16], the Kd came to 54.3 nM.

B17: Recombinant polypeptide of clones 16 + 29 (designed binder)
chain: VDFSDVGWNDWAVAPPGYHAFYCHGECPFPLADHLNSDNHAIVQTLVNSVEPLGGARWEAFDVTDAVQSHRRSQRASRKCCLVLRAVTAS
On to B17, for which the Kd in assay [17] turned out to be 58.7 nM.

B18: Recombinant polypeptide of clones 10 + 21 (designed binder)
chain: AQAKHKQRKRLKSSCKRHPLYNSKIPKACCVPTELSAISMLYLDENEKVVLKNYQDMVVEGCGCR
B18 had a Kd in assay [18] of 27.3 nM.

The record behind these values is US20190071480A1 (Biogen, published 2019).
